Data reported in patent US20250059285A1.

Target: human Gal10-His (human) (UniProt Q05315)
Test: competition ELISA on coated Gal10-His; negative control, competitor g7B07-hFab-Biot; set as 0%

Sequence of human Gal10-His (human) (Q05315 2-142 limits assumed): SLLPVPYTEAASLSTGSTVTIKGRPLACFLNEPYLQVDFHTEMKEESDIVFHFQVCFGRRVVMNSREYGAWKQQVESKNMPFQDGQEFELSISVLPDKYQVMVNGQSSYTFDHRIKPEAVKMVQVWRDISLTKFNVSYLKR

% Competition against g7B07-Biot: 0%
Mean OD value: 2.51 OD
Substance: Motavizumab in a human Fab backbone
